From the array DNA melting data of Ke et al.

Tests used:
[1] = melting temperature; UV melt of duplexes
[2] = melting temperature; melt of duplexes; conditions: sodium 0.0675 M; strand 1 µM

| Substance | Tm [2] [°C] | also measured |
| --- | --- | --- |
| AAAGGTGTCGCGGAGAGTCGTGCTG+CAGCACGACTCTCCGCGACACCTTT (((((((((((((((((((((((((+))))))))))))))))))))))))) | – | Tm ([1]; sodium 0.07 M, strand 2 µM): 69.6 °C; Tm ([1]; sodium 0.12 M, strand 2 µM): 73.6 °C; Tm ([1]; sodium 0.22 M, strand 2 µM): 77.4 °C; Tm ([1]; sodium 0.62 M, strand 2 µM): 81.2 °C; Tm ([1]; sodium 1.02 M, strand 2 µM): 82.4 °C |
| AAATAAATAGCTATTTATTT+AAATAAATAGCTATTTATTT ((((((((((((((((((((+)))))))))))))))))))) | – | Tm ([1]; sodium 0.12 M, strand 7 µM): 47.1 °C |
| AAATATAAGAATTCTTATATTT+AAATATAAGAATTCTTATATTT ((((((((((((((((((((((+)))))))))))))))))))))) | – | Tm ([1]; sodium 0.12 M, strand 7 µM): 48.9 °C |
| AAATATAGCTATATTT+AAATATAGCTATATTT ((((((((((((((((+)))))))))))))))) | – | Tm ([1]; sodium 0.12 M, strand 5 µM): 40.4 °C |
| AACGCCGGTAGAGTGCGCGCAA+TTGCGCGCACTCTACCGGCGTT ((((((((((((((((((((((+)))))))))))))))))))))) | – | Tm ([1]; sodium 0.12 M, strand 5.9 µM): 79.1 °C |
| AACGCGCGTAGAGTGGCCGCAA+TTGCGGCCACTCTACGCGCGTT ((((((((((((((((((((((+)))))))))))))))))))))) | – | Tm ([1]; sodium 0.12 M, strand 6 µM): 77.3 °C |
| AACGCGTGAATTCTGGCCAA+TTGGCCAGAATTCACGCGTT ((((((((((((((((((((+)))))))))))))))))))) | – | Tm ([1]; sodium 0.12 M, strand 6 µM): 66.6 °C |
| AAGCTATATATATCGAT+ATCGATATATATAGCTT (((((((((((((((((+))))))))))))))))) | – | Tm ([1]; sodium 0.12 M, strand 5 µM): 50.2 °C |
| AATATATAGCTATCGAT+ATCGATAGCTATATATT (((((((((((((((((+))))))))))))))))) | – | Tm ([1]; sodium 0.12 M, strand 4 µM): 49.7 °C |
| AATATATATAGAGTAATTATAA+TTATAATTACTCTATATATATT ((((((((((((((((((((((+)))))))))))))))))))))) | – | Tm ([1]; sodium 0.12 M, strand 5 µM): 45.1 °C |
| AATATATATAGAGTGGCCGCAA+TTGCGGCCACTCTATATATATT ((((((((((((((((((((((+)))))))))))))))))))))) | – | Tm ([1]; sodium 0.12 M, strand 6 µM): 65.2 °C |
| AATATATATGAATTCTAATTATAA+TTATAATTAGAATTCATATATATT ((((((((((((((((((((((((+)))))))))))))))))))))))) | – | Tm ([1]; sodium 0.12 M, strand 4.4 µM): 46.2 °C |
| AATATGAATTCTAATA+TATTAGAATTCATATT ((((((((((((((((+)))))))))))))))) | – | Tm ([1]; sodium 0.12 M, strand 6 µM): 41.4 °C |
| ACGCCCACAGGATTAGGCTGGCCCACATTG+CAATGTGGGCCAGCCTAATCCTGTGGGCGT ((((((((((((((((((((((((((((((+)))))))))))))))))))))))))))))) | – | Tm ([1]; sodium 0.07 M, strand 2 µM): 71.3 °C; Tm ([1]; sodium 0.12 M, strand 2 µM): 74.7 °C; Tm ([1]; sodium 0.22 M, strand 2 µM): 78.5 °C; Tm ([1]; sodium 0.62 M, strand 2 µM): 82.7 °C; Tm ([1]; sodium 1.02 M, strand 2 µM): 84 °C |
| CGACGTGCTTCATGTGCTG+CAGCACATGTGGCACGTCG ((((((((..(((((((((+)))))))))..)))))))) | 54.8 | – |
| CGACGTGCTTCATGTGCTG+CAGCACATTACGCACGTCG ((((((((.(.((((((((+)))))))).).)))))))) | 47.8 | – |
| CGACGTGCTTCATGTGCTG+CAGCACATTCAGCACGTCG (((((((((..((((((((+))))))))..))))))))) | 50.7 | – |
| CGACGTGCTTCATGTGCTG+CAGCACATTCGGCACGTCG ((((((((...((((((((+))))))))...)))))))) | 48.1 | – |
| CGACGTGCTTCATGTGCTG+CAGCACATTGCGCACGTCG ((((((((...((((((((+))))))))...)))))))) | 46.5 | – |
| CGACGTGCTTCATGTGCTG+CAGCACATTGTGCACGTCG ((((((((...((((((((+))))))))...)))))))) | 44.4 | – |
| CGACGTGCTTCATGTGCTG+CAGCACATTTGGCACGTCG ((((((((...((((((((+))))))))...)))))))) | 48.6 | – |
| CGACGTGCTTGATGTGCTG+CAGCACATAAAGCACGTCG ((((((((((.((((((((+)))))))).)))))))))) | 57.7 | – |
| CGACGTGCTTGATGTGCTG+CAGCACATAAGGCACGTCG ((((((((.(.((((((((+)))))))).).)))))))) | 52.3 | – |

| Substance | Tm [2] [°C] | also measured |
| --- | --- | --- |
| CGACGTGCTTGATGTGCTG+CAGCACATACCGCACGTCG ((((((((...((((((((+))))))))...)))))))) | 48.4 | – |
| CGACGTGCTTGATGTGCTG+CAGCACATACGGCACGTCG ((((((((...((((((((+))))))))...)))))))) | 49.2 | – |
| CGACGTGCTTGATGTGCTG+CAGCACATACTGCACGTCG ((((((((...((((((((+))))))))...)))))))) | 50.4 | – |
| CGACGTGCTTGATGTGCTG+CAGCACATATGGCACGTCG ((((((((...((((((((+))))))))...)))))))) | 51 | – |
| CGACGTGCTTGATGTGCTG+CAGCACATCGCGCACGTCG ((((((((..(((((((((+)))))))))..)))))))) | 54.3 | – |
| CGACGTGCTTGATGTGCTG+CAGCACATCGGGCACGTCG ((((((((..(((((((((+)))))))))..)))))))) | 56.8 | – |
| CGACGTGCTTGATGTGCTG+CAGCACATGAAGCACGTCG ((((((((((.((((((((+)))))))).)))))))))) | 56.6 | – |
| CGACGTGCTTGATGTGCTG+CAGCACATGACGCACGTCG ((((((((.(.((((((((+)))))))).).)))))))) | 46.5 | – |
| CGACGTGCTTGATGTGCTG+CAGCACATGCCGCACGTCG ((((((((...((((((((+))))))))...)))))))) | 47.8 | – |
| CGACGTGCTTGATGTGCTG+CAGCACATGGGGCACGTCG ((((((((...((((((((+))))))))...)))))))) | 50.7 | – |
| CGACGTGCTTGATGTGCTG+CAGCACATGTAGCACGTCG (((((((((..((((((((+))))))))..))))))))) | 51.7 | – |
| CGACGTGCTTGATGTGCTG+CAGCACATTATGCACGTCG ((((((((.(.((((((((+)))))))).).)))))))) | 51.9 | – |
| CGACGTGCTTGATGTGCTG+CAGCACATTCAGCACGTCG (((((((((..((((((((+))))))))..))))))))) | 51.9 | – |
| CGACGTGCTTGATGTGCTG+CAGCACATTGGGCACGTCG ((((((((...((((((((+))))))))...)))))))) | 50.7 | – |
| CGACGTGCTTGATGTGCTG+CAGCACATTTAGCACGTCG (((((((((..((((((((+))))))))..))))))))) | 52.5 | – |
| CGACGTGCTTGATGTGCTG+CAGCACATTTCGCACGTCG ((((((((...((((((((+))))))))...)))))))) | 48.5 | – |
| CGACGTGCTTGATGTGCTG+CAGCACATTTGGCACGTCG ((((((((...((((((((+))))))))...)))))))) | 50.8 | – |
| CGACGTGCTTTATGTGCTG+CAGCACATAAAGCACGTCG (((((((((((((((((((+))))))))))))))))))) | 61 | – |
| CGACGTGCTTTATGTGCTG+CAGCACATAACGCACGTCG ((((((((.((((((((((+)))))))))).)))))))) | 53.6 | – |
| CGACGTGCTTTATGTGCTG+CAGCACATAATGCACGTCG ((((((((.((((((((((+)))))))))).)))))))) | 55.1 | – |
| CGACGTGCTTTATGTGCTG+CAGCACATACTGCACGTCG ((((((((..(((((((((+)))))))))..)))))))) | 50.3 | – |
| CGACGTGCTTTATGTGCTG+CAGCACATATCGCACGTCG ((((((((..(((((((((+)))))))))..)))))))) | 49.1 | – |
| CGACGTGCTTTATGTGCTG+CAGCACATATGGCACGTCG ((((((((..(((((((((+)))))))))..)))))))) | 51.6 | – |

| Substance | Tm [2] [°C] | also measured |
| --- | --- | --- |
| CGACGTGCTTTATGTGCTG+CAGCACATATTGCACGTCG ((((((((..(((((((((+)))))))))..)))))))) | 51.2 | – |
| CGACGTGCTTTATGTGCTG+CAGCACATCACGCACGTCG ((((((((.(.((((((((+)))))))).).)))))))) | 47.9 | – |
| CGACGTGCTTTATGTGCTG+CAGCACATCCAGCACGTCG (((((((((..((((((((+))))))))..))))))))) | 49.4 | – |
| CGACGTGCTTTATGTGCTG+CAGCACATCCCGCACGTCG ((((((((...((((((((+))))))))...)))))))) | 46.8 | – |
| CGACGTGCTTTATGTGCTG+CAGCACATCGAGCACGTCG (((((((((..((((((((+))))))))..))))))))) | 51.3 | – |
| CGACGTGCTTTATGTGCTG+CAGCACATCTCGCACGTCG ((((((((...((((((((+))))))))...)))))))) | 46.5 | – |
| CGACGTGCTTTATGTGCTG+CAGCACATCTTGCACGTCG ((((((((...((((((((+))))))))...)))))))) | 48.5 | – |
| CGACGTGCTTTATGTGCTG+CAGCACATGACGCACGTCG ((((((((.(.((((((((+)))))))).).)))))))) | 47.1 | – |
| CGACGTGCTTTATGTGCTG+CAGCACATGAGGCACGTCG ((((((((.(.((((((((+)))))))).).)))))))) | 52.8 | – |
| CGACGTGCTTTATGTGCTG+CAGCACATGCTGCACGTCG ((((((((...((((((((+))))))))...)))))))) | 46.2 | – |
| CGACGTGCTTTATGTGCTG+CAGCACATGGAGCACGTCG (((((((((..((((((((+))))))))..))))))))) | 54.2 | – |
| CGACGTGCTTTATGTGCTG+CAGCACATGGGGCACGTCG ((((((((...((((((((+))))))))...)))))))) | 51 | – |
| CGACGTGCTTTATGTGCTG+CAGCACATGTCGCACGTCG ((((((((...((((((((+))))))))...)))))))) | 47.8 | – |
| CGACGTGCTTTATGTGCTG+CAGCACATGTGGCACGTCG ((((((((...((((((((+))))))))...)))))))) | 49.6 | – |
| CGACGTGCTTTATGTGCTG+CAGCACATTAAGCACGTCG ((((((((((.((((((((+)))))))).)))))))))) | 55.2 | – |
| CGACGTGCTTTATGTGCTG+CAGCACATTACGCACGTCG ((((((((.(.((((((((+)))))))).).)))))))) | 48.7 | – |
| CGACGTGCTTTATGTGCTG+CAGCACATTCAGCACGTCG (((((((((..((((((((+))))))))..))))))))) | 50.5 | – |
| CGACGTGCTTTATGTGCTG+CAGCACATTGCGCACGTCG ((((((((...((((((((+))))))))...)))))))) | 46.4 | – |
| CGACGTGCTTTATGTGCTG+CAGCACATTGTGCACGTCG ((((((((...((((((((+))))))))...)))))))) | 45.1 | – |
| CGACGTGCTTTATGTGCTG+CAGCACATTTCGCACGTCG ((((((((...((((((((+))))))))...)))))))) | 47.7 | – |
| CGACGTGCTTTATGTGCTG+CAGCACATTTTGCACGTCG ((((((((...((((((((+))))))))...)))))))) | 49.5 | – |
